Measured values: the RNAGym collection of RNA variant scans (doi:10.7554/elife.80360)

B1: CPEB3 Ribozyme (parent)
chain: GGGGGCCACAGCAGAAGCGUUCACGUCGCGGCCCCUGUCAGAUUCUGGUGAAUCUGCGAAUUCUGCUGU

Variants of: B1
Assay: self-cleavage, relative activity (ratio to wild type); higher = more cleavage; co-transcriptional

In order of rising self-cleavage:
1. AGGGGCCACAGCAGAAGCGUUCACGUCGCGGCUCCUGUCAGAUUCUGGUGAAUCUGCGAAUUCUGCUGU  0.0123
2. AGGGGCCACAGCAGAAGCGUUCACGUCGCGGCCCAUGUCAGAUUCUGGUGAAUCUGCGAAUUCUGCUGU  0.0188
3. AGGGGCCACAGCAGAAGCGUUCACGUCCCGGCCCCUGUCAGAUUCUGGUGAAUCUGCGAAUUCUGCUGU  0.0192
4. AGGGGCCACAGCAGAGGCGUUCACGUCGCGGCCCCUGUCAGAUUCUGGUGAAUCUGCGAAUUCUGCUGU  0.0235
5. AGGGGCCACAGCAGAAGCGUUCACGUCGCGGCCGCUGUCAGAUUCUGGUGAAUCUGCGAAUUCUGCUGU  0.0238
6. AGGGGCCACAGCAGAAGCGUUCACGUCGCGGCCCCUGUCAGGUUCUGGUGAAUCUGCGAAUUCUGCUGU  0.0249
7. AGGGGCCACAGCAGAAGCGUUCACGUCGCGGCCCCUGUCCGAUUCUGGUGAAUCUGCGAAUUCUGCUGU  0.028
8. AGCGGCCACAGCAGAAGCGUUCACGUCGCGGCCCCUGUCAGAUUCUGGUGAAUCUGCGAAUUCUGCUGU  0.0286
9. AGGGGCCACAGCAGAAGAGUUCACGUCGCGGCCCCUGUCAGAUUCUGGUGAAUCUGCGAAUUCUGCUGU  0.0308
10. AGGGGCCACAGCAGAAGCGUUCACGUCGCGGCCCCUGUCAGAUUCUGGUGAAUCUGCGACUUCUGCUGU  0.0326
11. AGGGGCCACAGCAGAAGCGUUCACGUCGCGGGCCCUGUCAGAUUCUGGUGAAUCUGCGAAUUCUGCUGU  0.0331
12. AGGGGCCACAGCGGAAGCGUUCACGUCGCGGCCCCUGUCAGAUUCUGGUGAAUCUGCGAAUUCUGCUGU  0.0336
13. AGGGGCCACAGCAGAAGCGUUCACGUCGCGGCCCCUGUCAGAUUCUGGUGAAUCUGCGAAUUGUGCUGU  0.0342
14. AGGGGCCACAGCAGAAGGGUUCACGUCGCGGCCCCUGUCAGAUUCUGGUGAAUCUGCGAAUUCUGCUGU  0.0371
15. AGGGGCCACAGCAGAAGCGUUCACGUCGUGGCCCCUGUCAGAUUCUGGUGAAUCUGCGAAUUCUGCUGU  0.0423
16. AGGGGCCACAGCAGAAGCGUUCACGUUGCGGCCCCUGUCAGAUUCUGGUGAAUCUGCGAAUUCUGCUGU  0.0438
17. AGGGGCCACAGCAGAAGCGUUCACGUCGGGGCCCCUGUCAGAUUCUGGUGAAUCUGCGAAUUCUGCUGU  0.0465
18. AGGGGCCACAGCAGAAUCGUUCACGUCGCGGCCCCUGUCAGAUUCUGGUGAAUCUGCGAAUUCUGCUGU  0.047
19. AGGCGCCACAGCAGAAGCGUUCACGUCGCGGCCCCUGUCAGAUUCUGGUGAAUCUGCGAAUUCUGCUGU  0.0471
20. AGGGGCCACAGCAGAAGCGUUCACGUCGCGGCGCCUGUCAGAUUCUGGUGAAUCUGCGAAUUCUGCUGU  0.0474
21. AGGGGCCACAGCAGAAGCGUUCACGUCGCGGACCCUGUCAGAUUCUGGUGAAUCUGCGAAUUCUGCUGU  0.0486
22. AGGGGCCACAGCAGAAGCGUUCACGUCGCGGCCCCUGUCAGAUUCUGGUGAAUCUGAGAAUUCUGCUGU  0.0488
23. AGGGGCCACAGCAGAAGCGUUCACGUCGCGGCCCCUGUCUGAUUCUGGUGAAUCUGCGAAUUCUGCUGU  0.0506
24. AGGGGCCACAGCAGAAGCGUUCACGUCGCGGCCCCUGUUAGAUUCUGGUGAAUCUGCGAAUUCUGCUGU  0.0531
25. AGGGGCCACAGCAGAAGCGUUCAAGUCGCGGCCCCUGUCAGAUUCUGGUGAAUCUGCGAAUUCUGCUGU  0.0536
26. AGGGGCCACAGCAGAAGCGUUCACGUCGCGGCCCCUGUCAGAUUCUGGUGAAUCUGUGAAUUCUGCUGU  0.0557
27. AGGGUCCACAGCAGAAGCGUUCACGUCGCGGCCCCUGUCAGAUUCUGGUGAAUCUGCGAAUUCUGCUGU  0.0571
28. AGGGGCCACAGCACAAGCGUUCACGUCGCGGCCCCUGUCAGAUUCUGGUGAAUCUGCGAAUUCUGCUGU  0.0574
29. AGGGGCCACAUCAGAAGCGUUCACGUCGCGGCCCCUGUCAGAUUCUGGUGAAUCUGCGAAUUCUGCUGU  0.0575
30. AGGGGCCACAGCAGAAGCGUUCACGUCGCGGCCCCUGUCAGAUUCUGGUGAUUCUGCGAAUUCUGCUGU  0.0595
31. AGGGGCCACAGCAGAAGUGUUCACGUCGCGGCCCCUGUCAGAUUCUGGUGAAUCUGCGAAUUCUGCUGU  0.0601
32. AGGGGCCACAGCAGAAGCGUUCACGUCGCGGCCCCUGUCAGAUUCUGGUGAAUCUGCGCAUUCUGCUGU  0.0603
33. AGGGGCCACAGCAGAAGCGUUCACGUCGCGGCCCCUGUCAGAUUCUGGUGAGUCUGCGAAUUCUGCUGU  0.0619
34. AGGGGCCACAGCAGAAGCGUUCAUGUCGCGGCCCCUGUCAGAUUCUGGUGAAUCUGCGAAUUCUGCUGU  0.0626
35. AGGGGCCUCAGCAGAAGCGUUCACGUCGCGGCCCCUGUCAGAUUCUGGUGAAUCUGCGAAUUCUGCUGU  0.0637
36. AGGGGCCACAGCCGAAGCGUUCACGUCGCGGCCCCUGUCAGAUUCUGGUGAAUCUGCGAAUUCUGCUGU  0.0638
37. AGGGGCCACAGCAGAAGCGUUCACGUCGCGGCCCCUGUCAGAUUCUGGUGAAUCUGCGAAUUUUGCUGU  0.0639
38. AGGGGGCACAGCAGAAGCGUUCACGUCGCGGCCCCUGUCAGAUUCUGGUGAAUCUGCGAAUUCUGCUGU  0.0647
39. AGGGCCCACAGCAGAAGCGUUCACGUCGCGGCCCCUGUCAGAUUCUGGUGAAUCUGCGAAUUCUGCUGU  0.0678
40. AGGGGCCACAGCUGAAGCGUUCACGUCGCGGCCCCUGUCAGAUUCUGGUGAAUCUGCGAAUUCUGCUGU  0.0681
41. AGGGGCCACAGCAGAAGCGUUCACGUCGCGGCCCCUGUCAGAUUCUGGUGAAUCUGGGAAUUCUGCUGU  0.0693
42. AGGGGCCACAGCAGAAGCGUUCACGUCGCGGCCCCUGUCAGAUUUUGGUGAAUCUGCGAAUUCUGCUGU  0.0709
43. AGGGGCCACAGCAGAAGCGUUCACGUCGCGGCCCCUGUCAGAUUCUGGUGAAUCUGCGUAUUCUGCUGU  0.0722
44. AGGGGCCACAGCAGAAGCGUUCACGUAGCGGCCCCUGUCAGAUUCUGGUGAAUCUGCGAAUUCUGCUGU  0.0748
45. AGGGGCCACAGCAGAAGCGUUCACGUCGCGGCCCUUGUCAGAUUCUGGUGAAUCUGCGAAUUCUGCUGU  0.0752
46. AGGGGCCACAGCAAAAGCGUUCACGUCGCGGCCCCUGUCAGAUUCUGGUGAAUCUGCGAAUUCUGCUGU  0.0754
47. AGGGGCCACAGCAGAAACGUUCACGUCGCGGCCCCUGUCAGAUUCUGGUGAAUCUGCGAAUUCUGCUGU  0.0759
48. AGGGGCCACAGCAGAAGCGUUCACGUCGCGGCCCCUGUCAGAUUCUGGUGAAUCUGCGAAUUCUGGUGU  0.0767
49. AGGGGCCACAGAAGAAGCGUUCACGUCGCGGCCCCUGUCAGAUUCUGGUGAAUCUGCGAAUUCUGCUGU  0.0768
50. AGGGGCCACAGCAGAAGCGUUCACGUCGCGGCCCCUGUCAGAUUGUGGUGAAUCUGCGAAUUCUGCUGU  0.0789
51. AGGGGCCACAGCAGAAGCGUUCACGUCGCGGCCCCUGUCAGAUUCUGGUGAAUGUGCGAAUUCUGCUGU  0.0801
52. AGGGGCCACAGCAGAAGCGUUCACCUCGCGGCCCCUGUCAGAUUCUGGUGAAUCUGCGAAUUCUGCUGU  0.0807
53. AGGGGCCACAGGAGAAGCGUUCACGUCGCGGCCCCUGUCAGAUUCUGGUGAAUCUGCGAAUUCUGCUGU  0.0843
54. AGGGGACACAGCAGAAGCGUUCACGUCGCGGCCCCUGUCAGAUUCUGGUGAAUCUGCGAAUUCUGCUGU  0.0849
55. AGGGGCCAGAGCAGAAGCGUUCACGUCGCGGCCCCUGUCAGAUUCUGGUGAAUCUGCGAAUUCUGCUGU  0.0894
56. AGGGGCCACAGCAGAAGCGUUCACGUCGCGGCCCCUGUCAGAUUCUGGUGAAUAUGCGAAUUCUGCUGU  0.0906
57. AGGGGCCACAGCAGAAGCGUUCACGUCGCGGCCUCUGUCAGAUUCUGGUGAAUCUGCGAAUUCUGCUGU  0.0949
58. AGGGGCGACAGCAGAAGCGUUCACGUCGCGGCCCCUGUCAGAUUCUGGUGAAUCUGCGAAUUCUGCUGU  0.0966
59. AGGGGCCACAGCAGAAGCGUUUACGUCGCGGCCCCUGUCAGAUUCUGGUGAAUCUGCGAAUUCUGCUGU  0.0977
60. AGGGGCCACAGCAGAAGCGUUCACGUCGCGGCCCCUGUCAGAUUCUGGUGAAUCUGCGAAUUAUGCUGU  0.1
61. AGGGGCCACAGCAGAAGCGUUCACGUCGCGGCCCCUGUCAGAUUCUGGUGAAUCUGCGAAUUCUGCUGU  0.104
62. AGGGGUCACAGCAGAAGCGUUCACGUCGCGGCCCCUGUCAGAUUCUGGUGAAUCUGCGAAUUCUGCUGU  0.105
63. AGGGGCCACAGCAGUAGCGUUCACGUCGCGGCCCCUGUCAGAUUCUGGUGAAUCUGCGAAUUCUGCUGU  0.105
64. AGGGGCCACAGCAGAAGCGUUCACGUCGCGGCCACUGUCAGAUUCUGGUGAAUCUGCGAAUUCUGCUGU  0.111
65. AGGGGCCACAGCAGAAGCGUUCACGUCGCGGCCCCUGUCAGAUUCUGGUGACUCUGCGAAUUCUGCUGU  0.113
66. AGGGGCCACAGCAGCAGCGUUCACGUCGCGGCCCCUGUCAGAUUCUGGUGAAUCUGCGAAUUCUGCUGU  0.113
67. AGGGGCCACCGCAGAAGCGUUCACGUCGCGGCCCCUGUCAGAUUCUGGUGAAUCUGCGAAUUCUGCUGU  0.117
68. AGGGGCCACAGCAGAAGCGUUCACGUCGCGGUCCCUGUCAGAUUCUGGUGAAUCUGCGAAUUCUGCUGU  0.12
69. AGGGGCCACAGCAGAAGCGUUCACGUCGCGGCCCCUGUCAGAUUCUGGUGUAUCUGCGAAUUCUGCUGU  0.136
70. AGGGGCCACAACAGAAGCGUUCACGUCGCGGCCCCUGUCAGAUUCUGGUGAAUCUGCGAAUUCUGCUGU  0.136
71. AGGGGCCAAAGCAGAAGCGUUCACGUCGCGGCCCCUGUCAGAUUCUGGUGAAUCUGCGAAUUCUGCUGU  0.145
72. AGGGACCACAGCAGAAGCGUUCACGUCGCGGCCCCUGUCAGAUUCUGGUGAAUCUGCGAAUUCUGCUGU  0.15
73. AGGGGCCACAGCAGGAGCGUUCACGUCGCGGCCCCUGUCAGAUUCUGGUGAAUCUGCGAAUUCUGCUGU  0.159
74. AGGGGCCACAGCAGAAGCGUUCAGGUCGCGGCCCCUGUCAGAUUCUGGUGAAUCUGCGAAUUCUGCUGU  0.163
75. AGGGGCCACAGCAGAAGCGUUCACGUCGCGGCCCCUGUCAGAUUCUGGUGAAUCUGCGGAUUCUGCUGU  0.167
76. AGGGGCCACAGCAGAAGCGUUCUCGUCGCGGCCCCUGUCAGAUUCUGGUGAAUCUGCGAAUUCUGCUGU  0.184
77. AGGGGCCAUAGCAGAAGCGUUCACGUCGCGGCCCCUGUCAGAUUCUGGUGAAUCUGCGAAUUCUGCUGU  0.19
78. AGGAGCCACAGCAGAAGCGUUCACGUCGCGGCCCCUGUCAGAUUCUGGUGAAUCUGCGAAUUCUGCUGU  0.28
